# Source: the MegaScale stability set (Tsuboyama et al. 2023)
# B1: EHEE_rd2_0601 (parent)
# chain: TYTYKLTDEEASRRAEDEWRNRGYDVRVRNNNGTWEVEVR
# B2: 2M8U (parent)
# chain: TKAQVIEAFKVFDRDGNGYVTVDYLRKVLNELGDMMPADEIEEMIYEADPQNSGYVQYETFVGMLFL
# Variants of: B1
# Experiment: folding stability dG (cDNA display proteolysis); higher = more stable
# Details: PBS, room temperature
row,Variant,folding stability dG [kcal/mol]
1,TYTLKLTDEEASRRAEDEWRNRGYDVRVRNNNGTWEVEVR,1.36
2,TYTFKLTDEEASRRAEDEWRNRGYDVRVRNNNGTWEVEVR,1.94
3,TYTAKLTDEEASRRAEDEWRNRGYDVRVRNNNGTWEVEVR,-0.411
4,TYTDKLTDEEASRRAEDEWRNRGYDVRVRNNNGTWEVEVR,-0.109
5,TYTPKLTDEEASRRAEDEWRNRGYDVRVRNNNGTWEVEVR,-0.228
6,TYTNKLTDEEASRRAEDEWRNRGYDVRVRNNNGTWEVEVR,-0.767
7,TYTQKLTDEEASRRAEDEWRNRGYDVRVRNNNGTWEVEVR,0.276
8,TYTCKLTDEEASRRAEDEWRNRGYDVRVRNNNGTWEVEVR,1.16
9,TYTIKLTDEEASRRAEDEWRNRGYDVRVRNNNGTWEVEVR,1.58
10,TYTTKLTDEEASRRAEDEWRNRGYDVRVRNNNGTWEVEVR,-0.316
11,TYTEKLTDEEASRRAEDEWRNRGYDVRVRNNNGTWEVEVR,0.419
12,TYTSKLTDEEASRRAEDEWRNRGYDVRVRNNNGTWEVEVR,-0.488
13,TYTVKLTDEEASRRAEDEWRNRGYDVRVRNNNGTWEVEVR,0.852
14,TYTWKLTDEEASRRAEDEWRNRGYDVRVRNNNGTWEVEVR,1.12
15,TYTGKLTDEEASRRAEDEWRNRGYDVRVRNNNGTWEVEVR,-0.985
16,TYTMKLTDEEASRRAEDEWRNRGYDVRVRNNNGTWEVEVR,1.14
17,TYTHKLTDEEASRRAEDEWRNRGYDVRVRNNNGTWEVEVR,0.191
18,TYTKKLTDEEASRRAEDEWRNRGYDVRVRNNNGTWEVEVR,-0.308
19,TYTYKLHDEEASRRAEDEWRNRGYDVRVRNNNGTWEVEVR,1.69
20,TYTYKLKDEEASRRAEDEWRNRGYDVRVRNNNGTWEVEVR,1.79
21,TYTYKLDDEEASRRAEDEWRNRGYDVRVRNNNGTWEVEVR,1.81
22,TYTYKLADEEASRRAEDEWRNRGYDVRVRNNNGTWEVEVR,1.94
23,TYTYKLIDEEASRRAEDEWRNRGYDVRVRNNNGTWEVEVR,1.62
24,TYTYKLCDEEASRRAEDEWRNRGYDVRVRNNNGTWEVEVR,2

row,Variant,folding stability dG [kcal/mol]
1,TYTYKLEDEEASRRAEDEWRNRGYDVRVRNNNGTWEVEVR,1.85
2,TYTYKLGDEEASRRAEDEWRNRGYDVRVRNNNGTWEVEVR,1.69
3,TYTYKLFDEEASRRAEDEWRNRGYDVRVRNNNGTWEVEVR,1.91
4,TYTYKRTDEEASRRAEDEWRNRGYDVRVRNNNGTWEVEVR,-0.655
5,TYTYKDTDEEASRRAEDEWRNRGYDVRVRNNNGTWEVEVR,0.391
6,TYTYKMTDEEASRRAEDEWRNRGYDVRVRNNNGTWEVEVR,1.97
7,TYTYKETDEEASRRAEDEWRNRGYDVRVRNNNGTWEVEVR,0.639
8,TYTYKHTDEEASRRAEDEWRNRGYDVRVRNNNGTWEVEVR,1.48
9,TYTYKVTDEEASRRAEDEWRNRGYDVRVRNNNGTWEVEVR,2.08
10,TYTYKSTDEEASRRAEDEWRNRGYDVRVRNNNGTWEVEVR,1.23
11,TYTYKYTDEEASRRAEDEWRNRGYDVRVRNNNGTWEVEVR,3.41
12,TYTYKNTDEEASRRAEDEWRNRGYDVRVRNNNGTWEVEVR,0.622
13,TYTYKTTDEEASRRAEDEWRNRGYDVRVRNNNGTWEVEVR,1.8
14,TYTYKFTDEEASRRAEDEWRNRGYDVRVRNNNGTWEVEVR,3.77
15,TYTYKATDEEASRRAEDEWRNRGYDVRVRNNNGTWEVEVR,1.4
16,TYTYKITDEEASRRAEDEWRNRGYDVRVRNNNGTWEVEVR,1.15
17,TYTYKGTDEEASRRAEDEWRNRGYDVRVRNNNGTWEVEVR,0.912
18,TYTYKPTDEEASRRAEDEWRNRGYDVRVRNNNGTWEVEVR,-0.21
19,TYTYKKTDEEASRRAEDEWRNRGYDVRVRNNNGTWEVEVR,-0.09
20,TYTYKQTDEEASRRAEDEWRNRGYDVRVRNNNGTWEVEVR,0.88
21,TYTYKWTDEEASRRAEDEWRNRGYDVRVRNNNGTWEVEVR,1.14
22,TMTYKLTDEEASRRAEDEWRNRGYDVRVRNNNGTWEVEVR,1.46
23,TQTYKLTDEEASRRAEDEWRNRGYDVRVRNNNGTWEVEVR,1.04
24,TETYKLTDEEASRRAEDEWRNRGYDVRVRNNNGTWEVEVR,0.682

row,Variant,folding stability dG [kcal/mol]
1,TVTYKLTDEEASRRAEDEWRNRGYDVRVRNNNGTWEVEVR,1.63
2,TLTYKLTDEEASRRAEDEWRNRGYDVRVRNNNGTWEVEVR,1.41
3,TFTYKLTDEEASRRAEDEWRNRGYDVRVRNNNGTWEVEVR,1.76
4,TITYKLTDEEASRRAEDEWRNRGYDVRVRNNNGTWEVEVR,1.69
5,TPTYKLTDEEASRRAEDEWRNRGYDVRVRNNNGTWEVEVR,0.083
6,TSTYKLTDEEASRRAEDEWRNRGYDVRVRNNNGTWEVEVR,0.609
7,TNTYKLTDEEASRRAEDEWRNRGYDVRVRNNNGTWEVEVR,0.674
8,TATYKLTDEEASRRAEDEWRNRGYDVRVRNNNGTWEVEVR,0.941
9,TDTYKLTDEEASRRAEDEWRNRGYDVRVRNNNGTWEVEVR,0.375
10,TRTYKLTDEEASRRAEDEWRNRGYDVRVRNNNGTWEVEVR,1.58
11,THTYKLTDEEASRRAEDEWRNRGYDVRVRNNNGTWEVEVR,1.37
12,TGTYKLTDEEASRRAEDEWRNRGYDVRVRNNNGTWEVEVR,0.413
13,TTTYKLTDEEASRRAEDEWRNRGYDVRVRNNNGTWEVEVR,1.38
14,TKTYKLTDEEASRRAEDEWRNRGYDVRVRNNNGTWEVEVR,1.33
15,TWTYKLTDEEASRRAEDEWRNRGYDVRVRNNNGTWEVEVR,2.04
16,TYNYKLTDEEASRRAEDEWRNRGYDVRVRNNNGTWEVEVR,0.532
17,TYKYKLTDEEASRRAEDEWRNRGYDVRVRNNNGTWEVEVR,1.13
18,TYFYKLTDEEASRRAEDEWRNRGYDVRVRNNNGTWEVEVR,1.37
19,TYPYKLTDEEASRRAEDEWRNRGYDVRVRNNNGTWEVEVR,-0.035
20,TYWYKLTDEEASRRAEDEWRNRGYDVRVRNNNGTWEVEVR,1.24
21,TYHYKLTDEEASRRAEDEWRNRGYDVRVRNNNGTWEVEVR,0.873
22,TYRYKLTDEEASRRAEDEWRNRGYDVRVRNNNGTWEVEVR,1.12
23,TYQYKLTDEEASRRAEDEWRNRGYDVRVRNNNGTWEVEVR,0.604
24,TYDYKLTDEEASRRAEDEWRNRGYDVRVRNNNGTWEVEVR,0.044

row,Variant,folding stability dG [kcal/mol]
1,TYLYKLTDEEASRRAEDEWRNRGYDVRVRNNNGTWEVEVR,1.46
2,TYVYKLTDEEASRRAEDEWRNRGYDVRVRNNNGTWEVEVR,1.82
3,TYMYKLTDEEASRRAEDEWRNRGYDVRVRNNNGTWEVEVR,1.18
4,TYIYKLTDEEASRRAEDEWRNRGYDVRVRNNNGTWEVEVR,1.92
5,TYCYKLTDEEASRRAEDEWRNRGYDVRVRNNNGTWEVEVR,2.36
6,TYAYKLTDEEASRRAEDEWRNRGYDVRVRNNNGTWEVEVR,0.556
7,TYEYKLTDEEASRRAEDEWRNRGYDVRVRNNNGTWEVEVR,0.117
8,TYGYKLTDEEASRRAEDEWRNRGYDVRVRNNNGTWEVEVR,0.036
9,TYSYKLTDEEASRRAEDEWRNRGYDVRVRNNNGTWEVEVR,0.898
10,TYYYKLTDEEASRRAEDEWRNRGYDVRVRNNNGTWEVEVR,1.36
11,LYTYKLTDEEASRRAEDEWRNRGYDVRVRNNNGTWEVEVR,1.37
12,HYTYKLTDEEASRRAEDEWRNRGYDVRVRNNNGTWEVEVR,1.44
13,SYTYKLTDEEASRRAEDEWRNRGYDVRVRNNNGTWEVEVR,1.62
14,IYTYKLTDEEASRRAEDEWRNRGYDVRVRNNNGTWEVEVR,1.73
15,KYTYKLTDEEASRRAEDEWRNRGYDVRVRNNNGTWEVEVR,1.28
16,NYTYKLTDEEASRRAEDEWRNRGYDVRVRNNNGTWEVEVR,1.19
17,EYTYKLTDEEASRRAEDEWRNRGYDVRVRNNNGTWEVEVR,0.815
18,AYTYKLTDEEASRRAEDEWRNRGYDVRVRNNNGTWEVEVR,1.41
19,VYTYKLTDEEASRRAEDEWRNRGYDVRVRNNNGTWEVEVR,1.86
20,FYTYKLTDEEASRRAEDEWRNRGYDVRVRNNNGTWEVEVR,1.73
21,GYTYKLTDEEASRRAEDEWRNRGYDVRVRNNNGTWEVEVR,1.37
22,YYTYKLTDEEASRRAEDEWRNRGYDVRVRNNNGTWEVEVR,1.81
23,RYTYKLTDEEASRRAEDEWRNRGYDVRVRNNNGTWEVEVR,1.35
24,DYTYKLTDEEASRRAEDEWRNRGYDVRVRNNNGTWEVEVR,0.915

row,Variant,folding stability dG [kcal/mol]
1,PYTYKLTDEEASRRAEDEWRNRGYDVRVRNNNGTWEVEVR,1.15
2,QYTYKLTDEEASRRAEDEWRNRGYDVRVRNNNGTWEVEVR,1.03
3,MYTYKLTDEEASRRAEDEWRNRGYDVRVRNNNGTWEVEVR,1.33
4,WYTYKLTDEEASRRAEDEWRNRGYDVRVRNNNGTWEVEVR,2.65
5,TYTYRLTDEEASRRAEDEWRNRGYDVRVRNNNGTWEVEVR,1.56
6,TYTYGLTDEEASRRAEDEWRNRGYDVRVRNNNGTWEVEVR,0.688
7,TYTYALTDEEASRRAEDEWRNRGYDVRVRNNNGTWEVEVR,1.38
8,TYTYILTDEEASRRAEDEWRNRGYDVRVRNNNGTWEVEVR,2.2
9,TYTYSLTDEEASRRAEDEWRNRGYDVRVRNNNGTWEVEVR,1.58
10,TYTYQLTDEEASRRAEDEWRNRGYDVRVRNNNGTWEVEVR,1.71
11,TYTYTLTDEEASRRAEDEWRNRGYDVRVRNNNGTWEVEVR,1.95
12,TYTYDLTDEEASRRAEDEWRNRGYDVRVRNNNGTWEVEVR,0.851
13,TYTYPLTDEEASRRAEDEWRNRGYDVRVRNNNGTWEVEVR,0.658
14,TYTYMLTDEEASRRAEDEWRNRGYDVRVRNNNGTWEVEVR,1.72
15,TYTYNLTDEEASRRAEDEWRNRGYDVRVRNNNGTWEVEVR,1.38
16,TYTYLLTDEEASRRAEDEWRNRGYDVRVRNNNGTWEVEVR,1.84
17,TYTYELTDEEASRRAEDEWRNRGYDVRVRNNNGTWEVEVR,1.31
18,TYTYVLTDEEASRRAEDEWRNRGYDVRVRNNNGTWEVEVR,1.97
19,TYTYFLTDEEASRRAEDEWRNRGYDVRVRNNNGTWEVEVR,2.34
20,TYTYHLTDEEASRRAEDEWRNRGYDVRVRNNNGTWEVEVR,1.74
21,TYTYWLTDEEASRRAEDEWRNRGYDVRVRNNNGTWEVEVR,1.83
22,TYTYYLTDEEASRRAEDEWRNRGYDVRVRNNNGTWEVEVR,2.64

# Variants of: B2
# Experiment: as above
# Details: PBS, room temperature
row,Variant,folding stability dG [kcal/mol]
1,TKAQVIEAFKVFDRDGNGYVTVDYLRKVLNELGDMMPADEIEEMIYEADPQNSGYVQYETFVGMLFW,3.08
2,TKAQVIEAFKVFDRDGNGYVTVDYLRKVLNELGDMMPADEIEEMIYEADPQNSGYVQYETFVGMLFV,3.28
3,TKAQVIEAFKVFDRDGNGYVTVDYLRKVLNELGDMMPADEIEEMIYEADPQNSGYVQYETFVGMLFY,3.08
4,TKAQVIEAFKVFDRDGNGYVTVDYLRKVLNELGDMMPADEIEEMIYEADPQNSGYVQYETFVGMLFS,3.6
5,TKAQVIEAFKVFDRDGNGYVTVDYLRKVLNELGDMMPADEIEEMIYEADPQNSGYVQYETFVGMLFT,3.3
